This passage reports Kd results from PMC9982066, “Inhibition of Ehrlichia chaffeensis infection by cell-permeable macrocyclic peptides that bind type IV secretion effector Etf-1” (PNAS Nexus, 2023).

Usually Kd stands for the concentration at which binding is half-saturated.

Starred links: 1 amine or outer side, 2 acyl side, 3 side chain; linkers in the order of their positions; H or OH if unused. Positions of bridges follow the written chain, without caps; N, C: chain ends. Non-standard residues stand in square brackets, D forms with d. No end group written: not given here. Trimesoyl = O=C(c1cc(C(=O)[*:2])cc(C(=O)[*:3])c1)[*:1]; Phe(3,4-Cl2) = N[C@@H](Cc1ccc(Cl)c(Cl)c1)C(=O)O; Phe(4-CF3) = N[C@@H](Cc1ccc(C(F)(F)F)cc1)C(=O)O; Phe(3-Cl) = N[C@@H](Cc1cccc(Cl)c1)C(=O)O; Phe(4-Cl) = N[C@@H](Cc1ccc(Cl)cc1)C(=O)O; Phe(4-F) = N[C@@H](Cc1ccc(F)cc1)C(=O)O; Phe(4-Me) = Cc1ccc(C[C@H](N)C(=O)O)cc1; 2Nal = N[C@@H](Cc1ccc2ccccc2c1)C(=O)O; d1Nal = N[C@H](Cc1cccc2ccccc12)C(=O)O; d2Nal = N[C@H](Cc1ccc2ccccc2c1)C(=O)O; βAsp = O=C(O)[C@H](CC(=O)[*:2])N[*:1]; hPhe = N[C@@H](CCc1ccccc1)C(=O)O; Phg = N[C@H](C(=O)O)c1ccccc1; Nle = CCCC[C@H](N)C(=O)O; Dap = NC[C@H](N)C(=O)O; TMA = not defined here; βAla = NCCC(=O)O

What all share (experiment): fluorescence polarisation
Settings in all cases: both partners purified

In assay [1] the target is T1, Ehrlichia translocated factor-1 (Etf-1) (Ehrlichia chaffeensis, UniProt Q2GG12 1-380).
For assay [2], the target named is T1, Ehrlichia translocated factor-1 (Etf-1). This is another data set of the same source.
In assay [3] the target is Ehrlichia translocated factor-1 (Etf-1), recombinant 6×His-Etf-1 fusion protein (E. chaffeensis, UniProt Q2GG12 1-380).

The molecule YHQ[dP]S[dL][Dap][Phg][d2Nal][dR]R[dR]R[Dap]-{βAla-βAla-Lys(FAM)} (linker N-7-14 via Trimesoyl; not fully specified (N-terminus)) [macrocyclic peptide B7-14, FAM-labelled] registered a dissociation constant (Kd) in assay [1] of 5.8 ± 0.9 µM.

B1: macrocyclic peptide B7-11, FAM-labelled (peptide)
chain: YHQ[dP]S[dL][Dap]F[d2Nal][dR]R[dA]R[Dap]-{βAla-βAla-Lys(FAM)}
modifications: linker 7-14 via TMA; reading uncertain; also: TMA third attachment point not given here
B1 came in with a Kd in assay [1] of 28 ± 6 µM.

B2: macrocyclic peptide B13, FAM-labelled (peptide)
chain: [dE]H[dF][dE]HA[Dap][dF][2Nal]R[dR]R[Dap]-{βAla-βAla-Lys(FAM)}
modifications: linker 7-13 via TMA; reading uncertain; also: TMA third attachment point not given here
For the molecule B2, in assay [2], the Kd is above 25 µM.

Molecule YHQ[dP]S[dL][Dap][Phe(3-Cl)][d2Nal][dR]R[dR]R[Dap]-{βAla-βAla-Lys(FAM)} (linker N-7-14 via Trimesoyl; not fully specified (N-terminus)) [macrocyclic peptide B7-17, FAM-labelled] registered a Kd in assay [1] of 3.4 ± 0.4 µM. YHQ[dP]S[dL][Dap][2Nal][d2Nal][dR]R[dR]R[Dap]-{βAla-βAla-Lys(FAM)} (linker N-7-14 via Trimesoyl; not fully specified (N-terminus)) [macrocyclic peptide B7-21, FAM-labelled] displayed a Kd in assay [1] of 1.9 ± 0.2 µM. The same measure, in the same setting: with YAQ[dP]S[dL][Dap]F[d2Nal][dR]R[dR]R[Dap]-{βAla-βAla-Lys(FAM)} (linker N-7-14 via Trimesoyl; not fully specified (N-terminus)) [macrocyclic peptide B7-5, FAM-labelled] the figure was 10.9 ± 1.5 µM.

B3: macrocyclic peptide B7-1, FAM-labelled (peptide)
chain: YHQ[dP]S[dA][Dap]F[d2Nal][dR]R[dR]R[Dap]-{βAla-βAla-Lys(FAM)}
modifications: linker 7-14 via TMA; reading uncertain; also: TMA third attachment point not given here
In assay [1], B3 yielded a Kd of 18.9 ± 6.9 µM. The same measure, in the same setting: with YHQ[dP]S[dL][Dap][Phe(4-CF3)][d2Nal][dR]R[dR]R[Dap]-{βAla-βAla-Lys(FAM)} (linker N-7-14 via Trimesoyl; not fully specified (N-terminus)) [macrocyclic peptide B7-20, FAM-labelled] the figure was 1.8 ± 0.2 µM. The same measure, in the same setting: with YHQ[dP]S[dL][Dap][Phe(4-Me)][d2Nal][dR]R[dR]R[Dap]-{βAla-βAla-Lys(FAM)} (linker N-7-14 via Trimesoyl; not fully specified (N-terminus)) [macrocyclic peptide B7-13, FAM-labelled] the figure was 6.3 ± 0.8 µM. Still for that read-out and setting: with YHQ[dP]S[dL][Dap][Phe(3,4-Cl2)][d2Nal][dR]R[dR]R[Dap]-{βAla-βAla-Lys(FAM)} (linker N-7-14 via Trimesoyl; not fully specified (N-terminus)) [macrocyclic peptide B7-19, FAM-labelled] the figure was 1.6 ± 0.2 µM; with YHA[dP]S[dL][Dap]F[d2Nal][dR]R[dR]R[Dap]-{βAla-βAla-Lys(FAM)} (linker N-7-14 via Trimesoyl; not fully specified (N-terminus)) [macrocyclic peptide B7-4, FAM-labelled], 7.4 ± 0.9 µM.

B4: macrocyclic peptide B17, FAM-labelled (peptide)
chain: [Phg][dF]GDY[Dap]F[d2Nal][dR]R[dR]R[Dap]-{βAla-βAla-Lys(FAM)}
modifications: linker 6-13 via TMA; reading uncertain; also: TMA third attachment point not given here
Take B4: the Kd in assay [2] was above 25 µM. Regarding AHQ[dP]S[dL][Dap]F[d2Nal][dR]R[dR]R[Dap] (linker 7-14 via TMA; not fully specified (C-terminus); reading uncertain) [macrocyclic peptide B7-6, FAM-labelled], the Kd in assay [1] is 11.9 ± 3.4 µM.

As for YHQ[dA]S[dL][Dap]F[d2Nal][dR]R[dR]R[Dap]-{βAla-βAla-Lys(FAM)} (linker N-7-14 via Trimesoyl; not fully specified (N-terminus)) [macrocyclic peptide B7-3, FAM-labelled], binding in assay [1] was characterised by a dissociation constant (Kd) of 5.8 ± 0.5 µM.

B5: FAM-labeled macrocyclic peptide B7-133-3 (peptide)
chain: Y[dF]D[Nle][dN][dL][Dap][Phe(4-Cl)][d2Nal][dR]R[dR]R[Dap]-{βAla-βAla-Lys(FAM)}
modifications: linker 7-14 via TMA; reading uncertain; also: TMA third attachment point not given here
As for B5, the Kd in assay [3] came out at 2400 ± 300 nM. YHQ[dP]S[dL][Dap][hPhe][d2Nal][dR]R[dR]R[Dap]-{βAla-βAla-Lys(FAM)} (linker N-7-14 via Trimesoyl; not fully specified (N-terminus)) [macrocyclic peptide B7-15, FAM-labelled] registered a Kd in assay [1] of 3.4 ± 0.6 µM.

B6: FAM-labeled macrocyclic peptide B7 (peptide)
chain: YHQ[dP]S[dL][Dap]F[d2Nal][dR]R[dR]R[Dap]-{βAla-βAla-Lys(FAM)}
modifications: linker 7-14 via TMA; reading uncertain; also: TMA third attachment point not given here
With B6, the Kd in assay [3] is 6500 ± 700 nM. YHQ[dP]S[dL][Dap][Phe(4-Cl)][3‑(3-benzothienyl)‑D‑Ala][dR]R[dR]R[Dap]-{βAla-βAla-Lys(FAM)} (linker N-7-14 via Trimesoyl; not fully specified (N-terminus)) [macrocyclic peptide B7-22, FAM-labelled]: the Kd in assay [1] stood at 5.7 ± 0.9 µM.

In assay [1], YHQ[dP]S[dL][Dap]F[d2Nal][dA]R[dR]R[Dap] (linker 7-14 via TMA; not fully specified (C-terminus); reading uncertain) [macrocyclic peptide B7-9, FAM-labelled] yielded a dissociation constant (Kd) of 30 ± 7 µM. Same read-out and setting: the value for YHQ[dP]S[dL][Dap]F[d2Nal][dR]R[dR]A[Dap]-{βAla-βAla-Lys(FAM)} (linker N-7-14 via Trimesoyl; not fully specified (N-terminus)) [macrocyclic peptide B7-12, FAM-labelled] was 15 ± 2 µM.

B7: macrocyclic peptide B7-10, FAM-labelled (peptide)
chain: YHQ[dP]S[dL][Dap]F[d2Nal][dR]A[dR]R[Dap]-{βAla-βAla-Lys(FAM)}
modifications: linker 7-14 via TMA; reading uncertain; also: TMA third attachment point not given here
B7 yielded a Kd in assay [1] of 30 ± 3 µM. Same read-out and setting: with YHQ[dP]S[dL][Dap][Phe(4-F)][d2Nal][dR]R[dR]R[Dap]-{βAla-βAla-Lys(FAM)} (linker N-7-14 via Trimesoyl; not fully specified (N-terminus)) [macrocyclic peptide B7-18, FAM-labelled] the figure was 3 ± 0.5 µM.

B8: FAM-labeled macrocyclic peptide B7-131-4 (peptide)
chain: Y[Phe(4-F)]D[Phg][dY][βAsp][dL][Dap][Phe(4-Cl)][d2Nal][dR]R[dR]R[Dap]-{βAla-βAla-Lys(FAM)}
modifications: linker 8-15 via TMA; reading uncertain; also: TMA third attachment point not given here
Regarding B8, in assay [3], the Kd is around 1500 nM.

B9: FAM-labeled macrocyclic peptide B7-131-1 (peptide)
chain: Y[dN][d2Nal]S[Phg][dL][dL][Dap][Phe(4-Cl)][d2Nal][dR]R[dR]R[Dap]-{βAla-βAla-Lys(FAM)}
modifications: linker 8-15 via TMA; reading uncertain; also: TMA third attachment point not given here
Consider B9, for which, in assay [3], the Kd was 1700 ± 200 nM.

In assay [1], YHQ[dP]S[dL][Dap][Phe(4-Cl)][d1Nal][dR]R[dR]R[Dap]-{βAla-βAla-Lys(FAM)} (linker N-7-14 via Trimesoyl; not fully specified (N-terminus)) [macrocyclic peptide B7-23, FAM-labelled] gave a Kd of 4.7 ± 0.5 µM.

B10: FAM-labeled macrocyclic peptide B7-133-9 (peptide)
chain: Y[dV][dL][dY][Phe(4-F)][dL][Dap][Phe(4-Cl)][d2Nal][dR]R[dR]R[Dap]-{βAla-βAla-Lys(FAM)}
modifications: linker 7-14 via TMA; reading uncertain; also: TMA third attachment point not given here
For the molecule B10, in assay [3], the dissociation constant (Kd) came to 2200 ± 300 nM.

B11: FAM-labeled macrocyclic peptide B7-133-8 (peptide)
chain: Y[d2Nal]Q[D‑beta‑homoalanine][dP][dL][Dap][Phe(4-Cl)][d2Nal][dR]R[dR]R[Dap]-{βAla-βAla-Lys(FAM)}
modifications: linker 7-14 via TMA; reading uncertain; also: TMA third attachment point not given here
For the molecule B11, the Kd in assay [3] came out at 1300 ± 100 nM.

B12: FAM-labeled macrocyclic peptide B7-131-5 (peptide)
chain: YH[dP][d2Nal]DA[dL][Dap][Phe(4-Cl)][d2Nal][dR]R[dR]R[Dap]-{βAla-βAla-Lys(FAM)}
modifications: linker 8-15 via TMA; reading uncertain; also: TMA third attachment point not given here
For the molecule B12, in assay [3], the Kd came out at 2900 ± 400 nM.

Consider YHQ[dP]A[dL][Dap]F[d2Nal][dR]R[dR]R[Dap]-{βAla-βAla-Lys(FAM)} (linker N-7-14 via Trimesoyl; not fully specified (N-terminus)) [macrocyclic peptide B7-2, FAM-labelled], for which, in assay [1], binding was put at a Kd of 6.7 ± 0.8 µM.
